Assay results: PMC7126611

Tested on: His-PTB (polypyrimidine tract-binding protein, pETPTB), P26599-1
Assay: EMSA

With “GGGCCAGACACUGAUUAUAUGGUUCAUAUGGGUAAUUACCUUCCCUAGGCUAAGGACUAACUGGUAUAUACCAUAAUUAAA [SHFV 3'(+)NCR RNA]” as the sequence, how does the Kd read?
The Kd was 7 nM.
